B1: YJL128C (protein, UniProt P08018 1-668, looked up)
MAP kinase kinase PBS2: MEDKFANLSLHEKTGKSSIQLNEQTGSDNGSAVKRTSSTSSHYNNINADLHARVKAFQEQRALKRSASVGSNQSEQDKGSSQSPKHIQQIVNKPLPPLPVAGSSKVSQRMSSQVVQASSKSTLKNVLDNQETQNITDVNINIDTTKITATTIGVNTGLPATDITPSVSNTASATHKAQLLNPNRRAPRRPLSTQHPTRPNVAPHKAPAIINTPKQSLSARRGLKLPPGGMSLKMPTKTAQQPQQFAPSPSNKKHIETLSNSKVVEGKRSNPGSLINGVQSTSTSSSTEGPHDTVGTTPRTGNSNNSSNSGSSGGGGLFANFSKYVDIKSGSLNFAGKLSLSSKGIDFSNGSSSRITLDELEFLDELGHGNYGNVSKVLHKPTNVIMATKEVRLELDEAKFRQILMELEVLHKCNSPYIVDFYGAFFIEGAVYMCMEYMDGGSLDKIYDESSEIGGIDEPQLAFIANAVIHGLKELKEQHNIIHRDVKPTNILCSANQGTVKLCDFGVSGNLVASLAKTNIGCQSYMAPERIKSLNPDRATYTVQSDIWSLGLSILEMALGRYPYPPETYDNIFSQLSAIVDGPPPRLPSDKFSSDAQDFVSLCLQKIPERRPTYAALTEHPWLVKYRNQDVHMSEYITERLERRNKILRERGENGLSKNVPALHMGGL
B2: YNL255C (protein, UniProt P53849 1-153, looked up)
Zinc finger protein GIS2: MSQKACYVCGKIGHLAEDCDSERLCYNCNKPGHVQTDCTMPRTVEFKQCYNCGETGHVRSECTVQRCFNCNQTGHISRECPEPKKTSRFSKVSCYKCGGPNHMAKDCMKEDGISGLKCYTCGQAGHMSRDCQNDRLCYNCNETGHISKDCPKA
B3: YNL098C (protein, UniProt P01120 2-319, looked up)
Ras-like protein 2: PLNKSNIREYKLVVVGGGGVGKSALTIQLTQSHFVDEYDPTIEDSYRKQVVIDDEVSILDILDTAGQEEYSAMREQYMRNGEGFLLVYSITSKSSLDELMTYYQQILRVKDTDYVPIVVVGNKSDLENEKQVSYQDGLNMAKQMNAPFLETSAKQAINVEEAFYTLARLVRDEGGKYNKTLTENDNSKQTSQDTKGSGANSVPRNSGGHRKMSNAANGKNVNSSTTVVNARNASIESKTGLAGNQATNGKTQTDRTNIDNSTGQAGQANAQSANTVNNRVNNNSKAGQVSNAKQARKQQAAPGGNTSEASKSGSGGCC
B4: YLR330W (protein, UniProt Q12114 1-671, looked up)
Chitin biosynthesis protein …: MSSVDVLLTVGKLDASLALLTTQDHHVIEFPTVLLPENVKAGSIIKMQVSQNLEEEKKQRNHFKSIQAKILEKYGTHKPESPVLKIVNVTQTSCVLAWDPLKLGSAKLKSLILYRKGIRSMVIPNPFKVTTTKISGLSVDTPYEFQLKLITTSGTLWSEKVILRTHKMTDMSGITVCLGPLDPLKEISDLQISQCLSHIGARPLQRHVAIDTTHFVCNDLDNEESNEELIRAKHNNIPIVRPEWVRACEVEKRIVGVRGFYLDADQSILKNYTFPPVNEEELSYSKENEPVAEVADENKMPEDTTDVEQVASPNDNESNPSEAKEQGEKSGHETAPVSPVEDPLHASTALENETTIETVNPSVRSLKSEPVGTPNIEENKADSSAEAVVEEPNEAVAESSPNEEATGQKSEDTDTHSNEQADNGFVQTEEVAENNITTESAGENNEPADDAAMEFGRPEAEIETPEVNESIEDANEPAEDSNEPVEDSNKPVKDSNKPVEDSNKPVEDSNKPVEDSNKPVEDANEPVEDTSEPVEDAGEPVQETNEFTTDIASPRHQEEDIELEAEPKDATESVAVEPSNEDVKPEEKGSEAEDDINNVSKEAASGESTTHQKTEASASLESSAVTEEQETTEAEVNTDDVLSTKEAKKNTGNSNSNKKKNKKNKKKGKKK
B5: YJL155C (protein, UniProt P32604 1-452, looked up)
Fructose-2,6-bisphosphatase: MGYSTISNDNDIKVCVIMVGLPARGKSFISQKIIRYLSWLSIKAKCFNVGNYRRDVSGNVPMDAEFFNFENTDNFKLRELAAQNAIKDIVNFFTKEDGSVAVFDATNSTRKRRKWLKDICEKNNIQPMFLESWSNDHELIINNAKDIGSTSPDYENSEPHVAEADFLERIRQYERFYEPLDPQKDKDMTFIKLVNIIEEVVINKIRTYLESRIVFYVMNIRPKPKYIWLSRHGESIYNVEKKIGGDSSLSERGFQYAKKLEQLVKESAGEINLTVWTSTLKRTQQTANYLPYKKLQWKALDELDAGVCDGMTYEEIEKEYPEDFKARDNDKYEYRYRGGESYRDVVIRLEPVIMELERQENVLIITHQAVLRCIYAYFMNVPQEESPWMSIPLHTLIKLEPRAYGTKVTKIKANIPAVSTYKEKGTSQVGELSQSSTKLHQLLNDSPLEDKF
B6: YNL020C (protein, UniProt P53974 1-638, looked up)
Actin-regulating kinase 1: MNQPQIGTYNVGTQLTVGSHQVEIIKYLTSGGFAQVYSALINPPDPHSNSSVACLKRVIVPDKPSLNTLRAEVDAMRLLKNNRYVVSYIDSHAAKAMLHNGSYEVFVLMEYCERGGLIDFMNTRLQNRLHEFEILQIMSQVTQGVAAMHALQPPLIHRDIKIENVLISANNEYKLCDFGSVCGIIRPPRNSQELSYVQQDILKNTTAQYRSPEMIDTFRGLPIDEKSDIWALGIFLYKLCYYTTPFEKGGDLAILSGKFEFPLYPNYSEQLKGLIRDILVQDPRHRPNVYQLLKRISIMQNVPCPINDIQVVQAPSSHLNLTELHQLSATQNILSLNSPTTMENTMPNATFQISMADNTTTAQMHPNRKPSQIAYDASFSNSAKGSQPLFDKSQNMYHALDPPLVEPLASSVSNNDNELKANSATKLKQAIVSEAHTFRQNNSIDFPLQNIIPQYEDSSSSSDESYSGDVDELKKTRSLGSYSTRGNIKKNQSVKESLTSSSLPGTSFTPTSTKVNLKHENSPFKSTFVNTIDNSKDDLNKPSYEDLDVSKQNLKNSIQQRMIDKLNSSEESFNARKMSKVKLHEKGEIDKPTMLKSSGPISKDKKTKPTPPPKPSHLKPKPPPKPLLLAGRKLSLDK
B7: YMR216C (protein, UniProt Q03656 1-742, looked up)
Serine/threonine-protein …: MGSSINYPGFVTKSAHLADTSTDASISCEEATSSQEAKKNFFQRDYNMMKKAPAPTKSKLSLALQTSKSSSSANGTVQEDTSSKTEDFSTKSIKKKPDSGVESHVSIQSDSGPQSDSDLDSDSSISSCDERNEESLKDYRPGGYHPAFKGEPYKDARYILVRKLGWGHFSTVWLAKDMVNNTHVAMKIVRGDKVYTEAAEDEIKLLQRVNDADNTKEDSMGANHILKLLDHFNHKGPNGVHVVMVFEVLGENLLALIKKYEHRGIPLIYVKQISKQLLLGLDYMHRRCGIIHTDIKPENVLMEIGDVEGIVQMVEALDKQKREAKRLQRHVSRSSDITANDSSDEKWAECQTSMPCGSSSNSKSRSIEKDLSKRCFRRPRRHTIITGSQPLPSPISSSNFFEMRAHFCGSSHNSFSSVSGNRNIPSSINNNSINNGIGIKNSNNSFLNSVPHSVTRMFINEDSNDNNNNDNSKNKNNNNNNSNNNNNEDIMNTPLHEEQLADSLSTFDISNISQSSDTNGPYISNTMDSNSNVSTDINSPENLIQIKIADLGNACWYDEHYTNSIQTREYRSPEVLLGAPWGCGADIWSTACLIFELITGDFLFEPDEGHSYTKDDDHIAQIIELLGELPSYLLRNGKYTRTFFNSRGLLRNISKLKFWPLEDVLTEKYKFSKDEAKEISDFLSPMLQLDPRKRADAGGLVNHPWLKDTLGMEEIRVPDRELYGSGSDIPGWFEEVRDHKRH

System: ABP1
Assay: DHFR-PCA on solid medium, bait ABP1 (Fig. 1B)
Assay type: cell-based, Saccharomyces cerevisiae
Conditions: bait ABP1, label = prey; 2-4 replicates
Source text: Supplement 41467_2021_21873_MOESM8_ESM.xlsx, sheet "Fig1B" | column: medsize; medrep; Ratio; Score

Molecule | medrep (log2 median colony size normalized to plate background, PCA score)
B1 | 2.693
B2 | 2.801
B3 | 3.322
B4 | 3.386
B5 | 1.596
B6 | 4.233
B7 | 1.64
